Laboratory results from US20230242902A1, “A HIGHLY ERROR-PRONE […] R[…] FOR TARGETED CONTINUOUS EVOLUTION IN VIVO” (The Regents of the University of California, priority 2017, published 2023).
Numbering of substitutions follows the chain as printed. In names and notes the source's numbering stands.

B1: I775A, L900S (protein)
chain: MDYKDKALNDLRNVYADFDSLPLDFRQILIKDRATLLQKEDVEKKILERQEDAKKYAEYLKQSEIPERISLPNIKRHKGVSISFEETSEDMVLEPRPFIFDGLNIRCFRRETIFSLKNKILNMVKESSSFKNVSRQSVSFMYFKIFNKGKVIASTKSVNIYEDKIDERLEDLCNNFDDVLKKIIDVTYGYESLFVSETYSYVIFYAKSIYFPQPRCVNNWGNNIPNILTFDSFKLFTANKNNVSCIKQCSRFLWQKDFNTLEEMIEYKNGNICIVTPQLHINDVRDIKSFNDIRLYSESPIKTFSVIDNTITYLFYFKEHLGVIFNITKSRHDRRVTKFSPLSKFSDVKNITVCFDIESYFDPEKESNQVNIPFICCASIIYNKVIGNIVDFEGRDCVAQMIEYVVDICGELNISSVELIAHNGGGYDFHYILSSMYNPAAIKNILIRNNSFISFNFAHDGVKFSVKDSYSFLLCSLANASKAFLNEETFKKTDFPHHDLKTADDLYKVYKEWSSVNTEINHVVEKEKLLITSEHIVNFTKNDKSKTLIEWSKDYCRNDVLVLSKVWLEFKNAVEDIFNCELVDQTMTLAGLSYKLFQANMPFDVELRHPNKEDYFNMREALIGGRCISVNGIYKDVLCLDVKSLYPASMAFYDQPYGSFKRVSSRPKDELGIYYVRVTPNRNNKSNFFPIRSHNKITYNNFEESTYIAWYTNVDIDIGLSEGHNIEYIPFDSYGNIGYSWSKKGKIFEKYIKDVLYKLKIKYEKQNNKVKRNVAKIIMNSLWGKFAQKWVNFEYFIKSEDDIDFESEEAYKIWDTDFMLIKKIKESTYSSKPIQNGVFTLSWARYHMKSIWDAGAKEGAECIYSDTDSIFVHKEHFKKNAKFMLNGLKVPIIGSEVGQSELECEFDKLLCAGKKQYMGFYTYFQDGKPCIKEKKRFKGIPSNYIIPELYAHLLSGADKEAKIQFLKFRREWGSVKGYIENKTVKAT
B2: M779L, F968C (protein)
chain: B1 chain with A775I, M779L, S900L, F968C
B3: V774I, L900S (protein)
chain: B1 chain with V774I, A775I
B4: M779L, K934W (protein)
chain: B1 chain with A775I, M779L, S900L, K934W
B5: I777A, L909F (protein)
chain: B1 chain with A775I, I777A, S900L, L909F
B6: I775A, K934W (protein)
chain: B1 chain with S900L, K934W
B7: I777K, F968C (protein)
chain: B1 chain with A775I, I777K, S900L, F968C
B8: I777K, W790L, K934W (protein)
chain: B1 chain with A775I, I777K, W790L, S900L, K934W
B9: I777K, F871Y (protein)
chain: B1 chain with A775I, I777K, F871Y, S900L
B10: I777K, K934W (protein)
chain: B1 chain with A775I, I777K, S900L, K934W
B11: I777A, K934W (protein)
chain: B1 chain with A775I, I777A, S900L, K934W
B12: I777A, L900S (protein)
chain: B1 chain with A775I, I777A
B13: I775A, F968T (protein)
chain: B1 chain with S900L, F968T
B14: I775A, L909F (protein)
chain: B1 chain with S900L, L909F
B15: I777K, V872I (protein)
chain: B1 chain with A775I, I777K, V872I, S900L
B16: V774I, F968C (protein)
chain: B1 chain with V774I, A775I, S900L, F968C
B17: I777K, L909F (protein)
chain: B1 chain with A775I, I777K, S900L, L909F
B18: I777K, F968T (protein)
chain: B1 chain with A775I, I777K, S900L, F968T
B19: I777A, V872I (protein)
chain: B1 chain with A775I, I777A, V872I, S900L
B20: V774I, F871Y (protein)
chain: B1 chain with V774I, A775I, F871Y, S900L
B21: I777A, F871Y (protein)
chain: B1 chain with A775I, I777A, F871Y, S900L

These molecules were tested on p1-encoded leu2 (Q180*) (assay: Large-scale p1 fluctuation tests of p1-encoded leu2 (Q180*), per-base substitution rate). Details: per-base substitution rate, p1-encoded leu2 (Q180*), large-scale fluctuation test.
Type: cell-based, S. cerevisiae
Source text: All three TP-DNAP1 libraries were screened through small scale p1 fluctuation tests in a metastable S. cerevisiae strain, OR-Y24. OR-Y24 contains w.t. p1 and recombinant p1 that lacks w.t. TP-DNAP1, and instead, encodes a standardized fluorescence reporter of p1 copy number (Table 1), and a disabled version of the LEU2 selection marker (leu2 (Q180*)). As described previously (Ravikumar et al., 2014), leu2 (Q180*) contains a C→T mutation at base 538 in LEU2 at a site permissive to all single point mutants that generate missense mutations. Reversion to functional LEU2 can be detected on medium lacking leucine.
Large-scale fluctuation tests of p1-encoded leu2 (Q180*) were performed to precisely determine per-base substitution rates for individually cloned or isolated TP-DNAP1 variants. Large-scale p1 fluctuation tests are performed similarly to small-scale p1 fluctuation tests, with several modifications. First, large-scale p1 fluctuation tests were typically performed with 36-48 replicates. For highly error-prone TP-DNAP1s obtained from later rounds of screening, fewer replicates (3-16) were used, which is sufficient for similar precision (Foster et al., 2006). Second, p1 copy number was determined by the flow cytometry method, described below. Third, cell titers were measured for each fluctuation test to estimate the average number of cells per culture. Cell resuspensions were diluted and plated on solid SC-UH medium, and colony counts were determined after incubation at 30° C. for 2-3 days. Alternatively, cell resuspensions were diluted and subject to an event-count measurement via flow cytometry. Fourth, inoculums of highly error-prone TP-DNAP 1 s occasionally contained pre-existing mutants, despite the 1:10,000 dilution, so mutant frequencies were estimated by plating pre-cultures on solid SC-UHLW, pH 5.8 medium. Plates were incubated for 2-3 days, in parallel with cultures grown for fluctuation tests. Pre-culture mutant titers were counted to estimate the number of replicates in the fluctuation test expected to contain pre-existing mutants (n). Revertants were counted from all replicates of the fluctuation tests, counts were sorted, and n replicates with the highest counts were omitted from calculations.
To calculate per-base substitution rates, fluctuation data were analyzed by the maximum likelihood method, implemented using newton.LD.plating in rSalvador 1.7 (Zheng, 2017). Phenotypic mutation rates were calculated by normalizing to the average number of cells per culture. Phenotypic mutation rates were divided by the measured p1 copy number and by the number of ways leu2 (Q180*) can revert to LEU2 (2.33 for the ochre codon) to yield per-base substitution rates. 95% confidence intervals were similarly scaled by these factors. All data related to large-scale p1 fluctuation tests are fully described in Table 2.
For B1, the “Mutation rate (s.p.b.)” value was 2.53 × 10^−8 s.p.b.
With B2 the “Mutation rate (s.p.b.)” value was 3.13 × 10^−10 s.p.b.
B3 was tested, and the “Mutation rate (s.p.b.)” value was 1.10 × 10^−7 s.p.b.
B4 was tested, and the “Mutation rate (s.p.b.)” value was 2.85 × 10^−9 s.p.b.
In the case of B5, the “Mutation rate (s.p.b.)” value is reported as 1.07 × 10^−7 s.p.b.
B6 was tested, and the “Mutation rate (s.p.b.)” value was 3.59 × 10^−8 s.p.b.
For B7, the “Mutation rate (s.p.b.)” value was 6.67 × 10^−7 s.p.b.
With B8 the “Mutation rate (s.p.b.)” value was 2.02 × 10^−7 s.p.b.
B9 was tested, and the “Mutation rate (s.p.b.)” value was 1.35 × 10^−6 s.p.b.
B10 was tested, and the “Mutation rate (s.p.b.)” value was 2.71 × 10^−7 s.p.b.
With B11 the “Mutation rate (s.p.b.)” value was 1.86 × 10^−7 s.p.b.
B12 was tested, and the “Mutation rate (s.p.b.)” value was 1.36 × 10^−7 s.p.b.
With B13 the “Mutation rate (s.p.b.)” value was 7.29 × 10^−8 s.p.b.
In the case of B14, the “Mutation rate (s.p.b.)” value is reported as 2.46 × 10^−8 s.p.b.
With B15 the “Mutation rate (s.p.b.)” value was 2.59 × 10^−8 s.p.b.
For B16, the “Mutation rate (s.p.b.)” value was 1.14 × 10^−7 s.p.b.
For B17, the “Mutation rate (s.p.b.)” value was 2.22 × 10^−7 s.p.b.
In the case of B18, the “Mutation rate (s.p.b.)” value is reported as 3.19 × 10^−7 s.p.b.
In the case of B19, the “Mutation rate (s.p.b.)” value is reported as 1.34 × 10^−10 s.p.b.
For B20, the “Mutation rate (s.p.b.)” value was 1.64 × 10^−7 s.p.b.
B21 was tested, and the “Mutation rate (s.p.b.)” value was 2.57 × 10^−7 s.p.b.
